Reference: US20230392126A1, “TISSUE ORGANOIDS” (priority 2016, published 2023)

Key:
[1] = Acute drug overdose test: METH-induced lethality; type: in vivo, mouse; settings: 34, 68, 100, 160 mg/kg METH i.p.
Protocol: For all behavioral experiments except where noted, C57BL/6J mice were used. Roughly equal numbers of adult male and female mice were group-housed until surgery. Mice were maintained under controlled temperature and humidity conditions on a 12 h:12 h light:dark cycle (lights on at 7:00). Water and food were available ad libitum. Mice weighed around 25-30 g at the beginning of the experiments. All procedures followed National Institutes of Health Guide for the Care and Use of Laboratory Animal and were approved by the University of Chicago Institutional Animal Care and Use Committee.
Drug: Cocaine HCl and methamphetamine HCl (Sigma-Aldrich, Saint Louis, MO) were dissolved in sterile saline and delivered intraperitoneally at appropriates doses in a volume of 10 mL/kg. […]
Acute drug overdose test: Two weeks after grafting surgery, 4 groups of GhBChE and 4 groups of GWT mice (n=8 each in each group) received i.p. injections of cocaine at 40, 120, and 160 mg/kg. […] Mice were monitored for 2 h following injection and percent of cocaine- and METH-induced lethality was calculated.
To first determine whether engrafting hBChE-expressing cells protects mice from acute systemic toxicity of cocaine, we delivered different doses of cocaine to grafted mice and calculated the lethality rates of cocaine. […]

[2] = Acquisition of ethanol CPP in GhBChE and GWT mice; type: in vivo, mouse; settings: 2 g/kg ethanol i.p., specificity control
Protocol: CPP apparatus: The CPP apparatus (FIG. 17; Med Associates, E. Fairfield, VT, USA) consisted of two larger chambers (16.8×12.7×12.7 cm), which were separated by a smaller chamber (7.2×12.7×12.7 cm) as previously described (Yan et al., 2013). […] Time spent in each chamber was measure via photobeam breaks and recorded. CPP was determined on testing days via time spent in the drug-paired side minus time spent in the saline-paired side.
Acquisition of CPP: A biased CPP procedure was used similar to that from a previous study (Yan et al., 2013). Acquisition of CPP consisted of three sequential procedures—pretest, conditioning, and test. […] On Day 6 (test day) mice were allowed to explore the entire chambers for 20 min and time spent in each area was recorded. […]
Next, protection against development of cocaine-seeking was assessed using the conditioned place preference (CPP) paradigm, which is thought to model reward learning and seeking because experimental animals approach and remain in contact with cues that have been paired with the effects of the reward. hBChE-expressing cells were grafted to cocaine-naïve mice with GWT animals as controls. […] As an additional control, ethanol CPP was measured after 4 days of conditioning in GhBChE and GWT mice.

[3] = hBChE in blood by ELISA, nude mice grafted with human skin organoids

B1: hBChE: modified human butyrylcholinesterase (E30-6, SEQ ID NO: 41), cocaine hydrolase, expressed from engineered epidermal cells / skin grafts (protein)
chain: MHSKVTIICIRFLFWFLLLCMLIGKSHTEDDIIIATKNGKVRGMNLTVFGGTVTAFLGIPYAQPPLGRLRFKKPQSLTKWSDIWNATKYANSCCQNIDQSFPGFHGSEMWNPNTDLSEDCLYLNVWIPAPKPKNATVLIWIYGGGFQTGTSSLHVYDGKFLARVERVIVVSMNYRVGALGFLALPGNPEAPGNMGLFDQQLALQWVQKNIAAFGGNPKSVTLFGESSGAASVSLHLLSPGSHSLFTRAILQSGSANAPWAVTSLYEARNRTLNLAKLTGCSRENETEIIKCLRNKDPQEILLNEAFVVPYGTALGVNFGPTVDGDFLTDMPDILLELGQFKKTQILVGVNKDEGTWFLVGGAPGFSKDNNSIITRKEFQEGLKIFFPGVSEFGKESILFHYTDWVDDQRPENYREALGDVVGDYNFICPALEFTKKFSEWGNNAFFYYFEHRSSKLPWPEWMGVMHGYEIEFVFGLPLERRDNYTKAEEILSRSIVKRWANFAKYGNPNETQNNSTSWPVFKSTEQKYLTLNTESTRIMTKLRAQQCRFWTSFFPKVLEMTGNIDEAEWEWKAGFHRWNNYMMDWKNQFNDYTSKKESCVGL
modifications: Human mutant BChE
METH-induced lethality, GhBChE vs GWT [1]: no difference in lethality | ethanol CPP after 4 days of conditioning [2]: spent significantly more time in ethanol-paired environments | duration of stable hBChE expression in vivo ([3]; human grafts): more than 8 weeks | level of human BChE in the blood ([3]; human hBChE-expressing grafts): significantly levels of human BChE in the blood
